This note sets out measurements from paper PMC3030633 (Journal of molecular biology, 2010).

No end group written: not given here. fluorescein = fluorescein label on the C-terminus of the peptide; Me3 = trimethyl-lysine

Assay [1] concerns the target the histone peptide containing H3K4me3. The experiment in a line: ITC + fluorescence polarisation.
For assay [2], the target named is PHF2 (1-451), containing both the PHD and Jumonji domains (human, UniProt O75151 1-451). In words: fluorescence polarisation.
PHF2 (1-451), containing both the PHD and Jumonji domains (human, UniProt O75151 1-451), sequence (O75151 1-451): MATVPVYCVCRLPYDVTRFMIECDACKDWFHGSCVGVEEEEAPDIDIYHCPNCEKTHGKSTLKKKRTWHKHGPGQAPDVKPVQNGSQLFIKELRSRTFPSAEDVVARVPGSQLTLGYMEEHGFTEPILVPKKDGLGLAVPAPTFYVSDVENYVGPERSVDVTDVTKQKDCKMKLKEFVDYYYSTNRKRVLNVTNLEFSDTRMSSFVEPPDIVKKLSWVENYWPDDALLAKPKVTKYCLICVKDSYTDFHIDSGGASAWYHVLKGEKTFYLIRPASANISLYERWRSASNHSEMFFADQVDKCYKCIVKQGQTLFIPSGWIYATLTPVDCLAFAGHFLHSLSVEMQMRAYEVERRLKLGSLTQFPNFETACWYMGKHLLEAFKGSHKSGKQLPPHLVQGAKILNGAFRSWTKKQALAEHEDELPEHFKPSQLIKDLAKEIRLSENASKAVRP

PHF2 (1-451), containing both the PHD and Jumonji domains (from UniProt O75151 1-451) (domain or fragment), sequence (O75151 1-451): as above

The term Kd denotes the concentration at which binding is half-saturated. As for “PHF2 (1-451), containing both the PHD and Jumonji domains (from UniProt O75151 1-451) (domain or fragment)”, the Kd in assay [1] fell in the range of 230 to 270 nM. For the molecule ARTK(Me3)QTARKSTGGKA-fluorescein (peptide, UniProt P68431 2-16, looked up) [H3(1-15)K4me3 peptide, C-terminal fluoresceinated], in assay [2], the binding result was “binds”.
